Test results reported in article PMC5027281 (Nature Communications, 2016).

Molecular target: Recombinant full-length HA of A/Vietnam/1203/04 (H5-VN04) (Influenza A virus A/Vietnam/1203/2004 …, UniProt Q5EP31)
Assay: BLI
Details: both partners purified

B1: 3I14 VLD94N variant IgG1 (antibody, V domains shown)
VH: QVQLLESGGGVVQPGRSLRLSCAASGFTFSNYGMHWVRQAPGKGLEWVAIISFDGSKKYYANSVKGRSTISRDNSKNTLSLQMNSLGPEDTALYYCAKLPSPYYFDSRFVWVAASAFHFWGQGILVTVSS
VL: NFMLTQPPSASGTPGQRVTISCSGSSSNIGGNTVHWFQQLPGTAPKLLIYTNSLRPSGVPDRFSGSKSGTSASLAISGLQSEDEADYYCAAWDNSLNGQVFGGGTKLTVL
  Kd: 0.187 nM
  koff: 7.74e-05 s⁻¹
  kon: 383000 M⁻¹ s⁻¹
